Legend:
Assay in all cases: holdup assay
Design in all cases: key: below the threshold = too weak to quantify, mostly under pKd 3.1 to 4
Conditions in all cases: plain residues with an end cap or a label only (N-terminal biotin on a linker: ado-ado)
SNTB1, Q13884 = target: T1, SNTB1, Q13884
T1 sequence (Q13884 107-205, limits assumed, looked up): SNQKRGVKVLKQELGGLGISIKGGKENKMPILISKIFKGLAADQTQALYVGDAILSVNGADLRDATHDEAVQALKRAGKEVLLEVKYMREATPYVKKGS

Inadl_8, Q8NI35 = target: Inadl_8, Q8NI35
GORASP1, Q9BQQ3 = target: GORASP1, Q9BQQ3
DLG3_1, Q92796 = target: T2, DLG3_1, Q92796
T2 sequence (Q92796 125-227, limits assumed, looked up): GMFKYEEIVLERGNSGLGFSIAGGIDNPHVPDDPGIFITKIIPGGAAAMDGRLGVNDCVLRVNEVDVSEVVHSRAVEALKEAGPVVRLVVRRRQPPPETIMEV

FRMPD2_2, Q68DX3 = target: FRMPD2_2, Q68DX3
CASK, O14936 = target: CASK, O14936
DLG3_2, Q92796 = target: T3, DLG3_2, Q92796
T3 sequence (Q92796 221-321, limits assumed, looked up): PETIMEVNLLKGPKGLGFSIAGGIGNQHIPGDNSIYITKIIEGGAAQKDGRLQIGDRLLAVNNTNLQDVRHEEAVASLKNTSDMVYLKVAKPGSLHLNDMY

TJP1_2, Q07157 = target: TJP1_2, Q07157
SCRIB_2, Q14160 = target: SCRIB_2, Q14160
GRID2IP_1, A4D2P6 = target: GRID2IP_1, A4D2P6
FRMPD2_1, Q68DX3 = target: FRMPD2_1, Q68DX3
LIN7A, O14910 = target: T4, LIN7A, O14910
T4 sequence (O14910 103-200, limits assumed, looked up): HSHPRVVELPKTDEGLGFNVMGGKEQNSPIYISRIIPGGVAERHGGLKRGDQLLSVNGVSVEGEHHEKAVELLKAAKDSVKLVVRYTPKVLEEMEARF

Inadl_5, Q8NI35 = target: Inadl_5, Q8NI35
FRMPD2_3, Q68DX3 = target: FRMPD2_3, Q68DX3
HTRA3, P83110 = target: T5, HTRA3, P83110
T5 sequence (P83110 354-453, limits assumed, looked up): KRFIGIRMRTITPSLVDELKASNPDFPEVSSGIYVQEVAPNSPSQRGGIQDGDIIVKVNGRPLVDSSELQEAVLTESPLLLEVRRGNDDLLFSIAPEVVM

MAGI1_1, Q96QZ7 = target: MAGI1_1, Q96QZ7
MAGI3_2, Q5TCQ9 = target: MAGI3_2, Q5TCQ9
GORASP2, Q9H8Y8 = target: GORASP2, Q9H8Y8
LAP2, Q96RT1 = target: LAP2, Q96RT1
RHPN1, Q8TCX5 = target: T6, RHPN1, Q8TCX5
T6 sequence (Q8TCX5 508-602, limits assumed, looked up): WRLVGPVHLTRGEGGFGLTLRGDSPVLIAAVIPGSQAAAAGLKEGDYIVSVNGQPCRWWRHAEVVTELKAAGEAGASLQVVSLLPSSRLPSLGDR

GRIP1_7, Q9Y3R0 = target: T7, GRIP1_7, Q9Y3R0
T7 sequence (Q9Y3R0 999-1096, limits assumed, looked up): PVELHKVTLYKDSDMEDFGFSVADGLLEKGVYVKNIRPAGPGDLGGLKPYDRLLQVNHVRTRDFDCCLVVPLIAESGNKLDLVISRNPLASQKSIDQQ

NHERF3_4, Q5T2W1 = target: T8, NHERF3_4, Q5T2W1
T8 sequence (Q5T2W1 373-468, limits assumed, looked up): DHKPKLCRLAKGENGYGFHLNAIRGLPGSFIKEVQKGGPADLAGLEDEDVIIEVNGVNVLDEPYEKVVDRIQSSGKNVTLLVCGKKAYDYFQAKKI

PDZD2_2, O15018 = target: T9, PDZD2_2, O15018
T9 sequence (O15018 329-429, limits assumed, looked up): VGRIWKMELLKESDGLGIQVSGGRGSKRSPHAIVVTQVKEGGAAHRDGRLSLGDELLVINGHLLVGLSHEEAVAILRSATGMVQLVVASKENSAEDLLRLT

MPDZ_5, O75970 = target: T10, MPDZ_5, O75970
T10 sequence (O75970 695-796, limits assumed, looked up): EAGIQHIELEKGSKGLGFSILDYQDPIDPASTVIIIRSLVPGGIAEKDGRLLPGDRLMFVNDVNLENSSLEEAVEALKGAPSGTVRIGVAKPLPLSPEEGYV

NHERF3_3, Q5T2W1 = target: T11, NHERF3_3, Q5T2W1
T11 sequence (Q5T2W1 238-333, limits assumed, looked up): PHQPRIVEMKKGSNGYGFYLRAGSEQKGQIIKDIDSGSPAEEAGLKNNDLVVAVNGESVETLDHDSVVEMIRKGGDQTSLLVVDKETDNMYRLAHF

DLG4_1, P78352 = target: DLG4_1, P78352
MAGI2_6, Q86UL8 = target: MAGI2_6, Q86UL8
Sequence of MAGI2_6, Q86UL8 (Q86UL8 1141-1229): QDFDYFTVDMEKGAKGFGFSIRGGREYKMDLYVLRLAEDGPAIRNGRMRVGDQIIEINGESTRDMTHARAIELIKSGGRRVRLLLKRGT

Sequence of Inadl_5, Q8NI35 (Q8NI35 673-780): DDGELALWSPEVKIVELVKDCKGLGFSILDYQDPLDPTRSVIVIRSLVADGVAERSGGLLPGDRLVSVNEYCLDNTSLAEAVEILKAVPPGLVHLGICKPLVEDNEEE
Sequence of MAGI3_2, Q5TCQ9 (Q5TCQ9 398-503): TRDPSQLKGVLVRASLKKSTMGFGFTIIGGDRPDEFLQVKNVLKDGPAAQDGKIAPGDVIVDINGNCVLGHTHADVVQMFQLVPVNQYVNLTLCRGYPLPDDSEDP
Sequence of GRID2IP_1, A4D2P6 (A4D2P6 1-87): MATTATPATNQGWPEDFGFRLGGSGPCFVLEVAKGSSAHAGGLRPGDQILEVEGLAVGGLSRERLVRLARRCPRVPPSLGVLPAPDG
Sequence of LAP2, Q96RT1 (Q96RT1 other isoform, or with tags, fused parts or gaps): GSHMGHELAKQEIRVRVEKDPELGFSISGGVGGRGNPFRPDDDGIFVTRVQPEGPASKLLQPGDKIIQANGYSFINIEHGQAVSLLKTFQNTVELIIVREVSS
Sequence of TJP1_2, Q07157 (Q07157 181-274): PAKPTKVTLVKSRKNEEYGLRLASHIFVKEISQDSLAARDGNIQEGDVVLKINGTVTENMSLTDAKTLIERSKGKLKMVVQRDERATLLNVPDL
Sequence of FRMPD2_2, Q68DX3 (Q68DX3 944-1038): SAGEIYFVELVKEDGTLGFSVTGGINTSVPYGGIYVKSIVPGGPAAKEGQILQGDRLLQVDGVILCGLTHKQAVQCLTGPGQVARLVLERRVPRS
Sequence of Inadl_8, Q8NI35 (Q8NI35 1425-1530): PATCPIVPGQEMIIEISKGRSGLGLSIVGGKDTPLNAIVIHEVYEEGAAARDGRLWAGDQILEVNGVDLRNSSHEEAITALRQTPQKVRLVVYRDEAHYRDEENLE
Sequence of FRMPD2_3, Q68DX3 (Q68DX3 1073-1166): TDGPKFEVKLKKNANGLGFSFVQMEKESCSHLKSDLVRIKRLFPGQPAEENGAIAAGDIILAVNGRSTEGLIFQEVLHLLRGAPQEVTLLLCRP
Sequence of GORASP1, Q9BQQ3 (Q9BQQ3 1-208): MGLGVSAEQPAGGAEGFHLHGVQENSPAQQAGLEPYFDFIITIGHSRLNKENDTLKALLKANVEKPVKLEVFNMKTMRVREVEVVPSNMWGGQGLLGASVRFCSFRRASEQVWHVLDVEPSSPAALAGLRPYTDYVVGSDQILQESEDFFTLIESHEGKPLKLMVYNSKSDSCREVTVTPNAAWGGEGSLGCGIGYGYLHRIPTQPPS
Sequence of DLG4_1, P78352 (P78352 62-152): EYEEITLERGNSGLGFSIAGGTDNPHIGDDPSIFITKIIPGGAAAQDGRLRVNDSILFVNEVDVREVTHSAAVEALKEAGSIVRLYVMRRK
Sequence of MAGI1_1, Q96QZ7 (Q96QZ7 1-106): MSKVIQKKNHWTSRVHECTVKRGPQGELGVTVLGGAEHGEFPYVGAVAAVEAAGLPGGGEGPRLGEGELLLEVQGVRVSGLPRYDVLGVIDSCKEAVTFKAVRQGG
Sequence of CASK, O14936 (O14936 487-570): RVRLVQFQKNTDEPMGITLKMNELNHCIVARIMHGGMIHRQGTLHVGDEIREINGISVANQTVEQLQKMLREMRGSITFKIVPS
Sequence of FRMPD2_1, Q68DX3 (Q68DX3 770-861): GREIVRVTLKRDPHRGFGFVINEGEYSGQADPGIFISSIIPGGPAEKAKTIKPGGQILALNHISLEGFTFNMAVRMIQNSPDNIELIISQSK
Sequence of SCRIB_2, Q14160 (Q14160 857-960): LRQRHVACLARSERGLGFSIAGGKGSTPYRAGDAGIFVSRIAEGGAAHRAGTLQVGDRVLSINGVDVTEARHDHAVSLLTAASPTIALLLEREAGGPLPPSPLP

B1: GPR12, P47775 (peptide)
chain: AQRARSPSDV
- pKd (SNTB1, Q13884): below the threshold
- pKd (Inadl_8, Q8NI35): 4.6
- pKd (GORASP1, Q9BQQ3): below the threshold
- pKd (DLG3_1, Q92796): below the threshold
- pKd (FRMPD2_2, Q68DX3): below the threshold
- pKd (CASK, O14936): below the threshold
- pKd (DLG3_2, Q92796): 4.32
- pKd (TJP1_2, Q07157): below the threshold
- pKd (SCRIB_2, Q14160): below the threshold
- pKd (GRID2IP_1, A4D2P6): below the threshold
- pKd (FRMPD2_1, Q68DX3): below the threshold
- pKd (LIN7A, O14910): below the threshold
- pKd (Inadl_5, Q8NI35): 3.85
- pKd (FRMPD2_3, Q68DX3): below the threshold
- pKd (HTRA3, P83110): below the threshold
- pKd (MAGI1_1, Q96QZ7): 3.67
- pKd (MAGI3_2, Q5TCQ9): 3.5
- pKd (GORASP2, Q9H8Y8): below the threshold
- pKd (LAP2, Q96RT1): 3.51
- pKd (RHPN1, Q8TCX5): below the threshold
- pKd (GRIP1_7, Q9Y3R0): below the threshold
- pKd (NHERF3_4, Q5T2W1): below the threshold
- pKd (PDZD2_2, O15018): 4.71
- pKd (MPDZ_5, O75970): below the threshold
- pKd (NHERF3_3, Q5T2W1): below the threshold
- pKd (DLG4_1, P78352): below the threshold
- pKd (MAGI2_6, Q86UL8): below the threshold

B2: MYOT, Q9UBF9 (peptide)
chain: QSGLYESEEL
- pKd (SNTB1, Q13884): below the threshold
- pKd (Inadl_8, Q8NI35): below the threshold
- pKd (GORASP1, Q9BQQ3): below the threshold
- pKd (DLG3_1, Q92796): below the threshold
- pKd (FRMPD2_2, Q68DX3): below the threshold
- pKd (CASK, O14936): below the threshold
- pKd (DLG3_2, Q92796): 4.21
- pKd (TJP1_2, Q07157): below the threshold
- pKd (SCRIB_2, Q14160): below the threshold
- pKd (GRID2IP_1, A4D2P6): below the threshold
- pKd (FRMPD2_1, Q68DX3): below the threshold
- pKd (LIN7A, O14910): below the threshold
- pKd (Inadl_5, Q8NI35): below the threshold
- pKd (FRMPD2_3, Q68DX3): below the threshold
- pKd (HTRA3, P83110): below the threshold
- pKd (MAGI1_1, Q96QZ7): below the threshold
- pKd (MAGI3_2, Q5TCQ9): below the threshold
- pKd (GORASP2, Q9H8Y8): below the threshold
- pKd (LAP2, Q96RT1): 3.9
- pKd (RHPN1, Q8TCX5): below the threshold
- pKd (GRIP1_7, Q9Y3R0): below the threshold
- pKd (NHERF3_4, Q5T2W1): below the threshold
- pKd (PDZD2_2, O15018): below the threshold
- pKd (MPDZ_5, O75970): below the threshold
- pKd (NHERF3_3, Q5T2W1): below the threshold
- pKd (DLG4_1, P78352): below the threshold
- pKd (MAGI2_6, Q86UL8): 4.24

B3: CACNA1A, O00555 (peptide)
chain: PYSESDDDWC
- pKd (SNTB1, Q13884): below the threshold
- pKd (Inadl_8, Q8NI35): below the threshold
- pKd (GORASP1, Q9BQQ3): below the threshold
- pKd (DLG3_1, Q92796): below the threshold
- pKd (FRMPD2_2, Q68DX3): below the threshold
- pKd (CASK, O14936): 3.53
- pKd (DLG3_2, Q92796): 4.16
- pKd (TJP1_2, Q07157): below the threshold
- pKd (SCRIB_2, Q14160): below the threshold
- pKd (GRID2IP_1, A4D2P6): below the threshold
- pKd (FRMPD2_1, Q68DX3): below the threshold
- pKd (LIN7A, O14910): below the threshold
- pKd (Inadl_5, Q8NI35): below the threshold
- pKd (FRMPD2_3, Q68DX3): below the threshold
- pKd (HTRA3, P83110): 5.79
- pKd (MAGI1_1, Q96QZ7): below the threshold
- pKd (MAGI3_2, Q5TCQ9): below the threshold
- pKd (GORASP2, Q9H8Y8): 3.67
- pKd (LAP2, Q96RT1): 3.87
- pKd (RHPN1, Q8TCX5): below the threshold
- pKd (GRIP1_7, Q9Y3R0): below the threshold
- pKd (NHERF3_4, Q5T2W1): below the threshold
- pKd (PDZD2_2, O15018): 5.3
- pKd (MPDZ_5, O75970): below the threshold
- pKd (NHERF3_3, Q5T2W1): below the threshold
- pKd (DLG4_1, P78352): below the threshold
- pKd (MAGI2_6, Q86UL8): 4.17

B4: OR8G1, Q15617 (peptide)
chain: KKMLQRRTLL
- pKd (SNTB1, Q13884): 3.64
- pKd (Inadl_8, Q8NI35): 3.55
- pKd (GORASP1, Q9BQQ3): 4.06
- pKd (DLG3_1, Q92796): below the threshold
- pKd (FRMPD2_2, Q68DX3): below the threshold
- pKd (CASK, O14936): below the threshold
- pKd (DLG3_2, Q92796): below the threshold
- pKd (TJP1_2, Q07157): below the threshold
- pKd (SCRIB_2, Q14160): below the threshold
- pKd (GRID2IP_1, A4D2P6): below the threshold
- pKd (FRMPD2_1, Q68DX3): below the threshold
- pKd (LIN7A, O14910): below the threshold
- pKd (Inadl_5, Q8NI35): below the threshold
- pKd (FRMPD2_3, Q68DX3): below the threshold
- pKd (HTRA3, P83110): below the threshold
- pKd (MAGI1_1, Q96QZ7): below the threshold
- pKd (MAGI3_2, Q5TCQ9): 4.55
- pKd (GORASP2, Q9H8Y8): 3.8
- pKd (LAP2, Q96RT1): below the threshold
- pKd (RHPN1, Q8TCX5): below the threshold
- pKd (GRIP1_7, Q9Y3R0): below the threshold
- pKd (NHERF3_4, Q5T2W1): 4.64
- pKd (PDZD2_2, O15018): below the threshold
- pKd (MPDZ_5, O75970): below the threshold
- pKd (NHERF3_3, Q5T2W1): 3.77
- pKd (DLG4_1, P78352): 3.87
- pKd (MAGI2_6, Q86UL8): below the threshold
